Source: patent US20180371066A1

T1: PEP_2875828
T1 sequence (peptide): GGYTMHQDQEGDTDA

T2: PEP_2875802
T2 sequence (peptide): HAGTYGLGDRKDQGG

T3: PEP_2875800
T3 sequence (peptide): DHAGTYGLGDRKDQG

T4: PEP_2875830
T4 sequence (peptide): GYTMHQDQEGDTDAG

T5: PEP_2875805
T5 sequence (peptide): AGTYGLGDRAAQGGY

T6: PEP_2875815
T6 sequence (peptide): LGDRKDQGGAAMHQD

T7: PEP_2875801
T7 sequence (peptide): DHAGTYGLGAAKDQG

T8: PEP_2875807
T8 sequence (peptide): GTYGLGDRKAAGGYT

T9: PEP_2875803
T9 sequence (peptide): HAGTYGLGDAADQGG

T10: PEP_2875813
T10 sequence (peptide): GLGDRKDQGAATMHQ

T11: PEP_2875829
T11 sequence (peptide): GGYTMHQDQAADTDA


Tests used:
[1] = molecular target: T1, PEP_2875828; assay: peptide array of 15-mers of human tau probed with the antibody; label LIN
[2] = molecular target: T2, PEP_2875802; assay: as above
[3] = molecular target: T3, PEP_2875800; assay: as above
[4] = molecular target: T4, PEP_2875830; assay: as above
[5] = molecular target: T5, PEP_2875805; assay: peptide array of 15-mers of human tau probed with the antibody; label LIN.AA (double alanine)
[6] = molecular target: T6, PEP_2875815; assay: as above
[7] = molecular target: T7, PEP_2875801; assay: as above
[8] = molecular target: T8, PEP_2875807; assay: as above
[9] = molecular target: T9, PEP_2875803; assay: as above
[10] = molecular target: T10, PEP_2875813; assay: as above
[11] = molecular target: T11, PEP_2875829; assay: as above

Binding Signal [1] | Binding Signal [2] | Binding Signal [3] | Binding Signal [4] | Binding Signal [5] | Binding Signal [6] | Binding Signal [7] | Binding Signal [8] | Binding Signal [9] | Binding Signal [10] | Binding Signal [11] | Binder
109 | 63 | 61 | 77 | 58 | 69 | 52 | 110 | 51 | 80 | 106 | murine anti-tau antibody HJ8.5 (antibody, V domains shown) VH: EVKVEESGGGLVQPGGSMKLSCVVSGFTFSNYWVNWVRQSPEKGLEWVAQIRLKSDNYATHYEESVKGRFTISRDDSKSSVYLQMNNLRAEDSGIYYCTNWEDYWGQGTTLTVSS VL: DIVLTQSPASLAVSLGQRATISCRASQSVSTSRYSYIHWYQQKPGQPPKLLIKYASNLESGVPARFSGSGSGTDFTLNIHPLEEEDAATYYCHHSWEIPLTFGAGTKLELK
110 | 65 | 78 | 97 | 76 | 99 | 90 | 114 | 65 | 65 | 118 | VH1/VK2 humanized anti-tau antibody (C2N-8E12) (antibody, human IgG4 S228P, kappa, V domains shown) VH: EVKVVESGGGLVQPGGSMKLSCVVSGFTFSNYWVNWVRQAPGKGLEWVAQIRLKSDNYATHYEESVKGRFTISRDDSKSSVYLQMNNLRAEDSGIYYCTNWEDYWGQGTTVTVSS VL: DIVLTQSPDSLAVSLGERATISCRASQSVSTSRYSYIHWYQQKPGQPPKLLIKYASNLESGVPSRFSGSGSGTDFTLNIHPLEPEDFATYYCHHSWEIPLTFGQGTKLEIKR
